# From PMC3075957 (Nature structural & molecular biology, 2011)
# B1: SFQ37P10K2 (peptide)
# peptide: SFQQQQQQQQQQQQQQQQQQQQQQQQQQQQQQQQQQQQQPPPPPPPPPPKK
# B2: AT7^NTQ30K2: peptide consisting of the AT7^NT sequence (29 amino acid N-terminus of ataxin-7) followed by a Q30K2 sequence (peptide)
# peptide: MSERAADDVRGEPRRAAAAAGGAAAAAARQQQQQQQQQQQQQQQQQQQQQQQQQQQQQQKK
# Tests used:
# K2Q23K2 [1] = assay: seeded elongation kinetics
# K2Q23K2 [2] = assay: sedimentation assay with HPLC
# K2Q23K2 [3] = target: K2Q23K2
# K2Q23K2 [4] = assay: sedimentation assay with HPLC of the supernatant
# [5] = target: the molecule itself; assay: sedimentation assay with HPLC of the supernatant
# [6] = Aggregation time course by HPLC sedimentation assay; type: physicochemical; settings: comparable concentrations, PBS 37 °C
# [7] = Dynamic light scattering of aggregation reactions; type: physicochemical; settings: 166 μM, PBS 37 °C, different incubation times
# [8] = Electron microscopy of end-stage aggregates; type: physicochemical; settings: PBS 37 °C, uniform smooth-sided fibrils
molecule,measurement,setting,value
K2Q23K2 (peptide),kon,K2Q23K2 [1],12400 M⁻¹ s⁻¹
same,critical concentration (Cr) of monomer in equilibrium with fibrils,K2Q23K2 [2],3 µM
same,loss of monomer within two hours (215 μM),K2Q23K2 [3],< 1%
same,n* (critical nucleus size of aggregation),K2Q23K2 [4],3.9
same,nucleation equilibrium constant Kn* (monomers to tetrameric nucleus),K2Q23K2 [4],0.076 l^3/mol^3
same,"percent aggregation (215 μM, 27 hrs)",K2Q23K2 [4],5%
B1,n* (critical nucleus size of aggregation),[5],1
KKQQQQQQQQQQQQQQQQQQQQQQQQQQQQQQQQQQQQQKK [K2Q37K2],n* (critical nucleus size of aggregation),[5],0.7
KKQQQQQQQQQQQQQQQQQQQQQQQQQKK [K2Q25K2],n* (critical nucleus size of aggregation),[5],2
KKQQQQQQQQQQQQQQQQQQQQQQQQKK [K2Q24K2],n* (critical nucleus size of aggregation),[5],3.3
B2,Aggregation rate compared with K2Q30K2,[6],aggregates somewhat slower than K2Q30K2
same,Aggregate formation by DLS versus sedimentation assay,[7],no aggregate formation that was not detected by the sedimentation assay
same,Fibril diameter by electron microscopy,[8],~10 nm
